No end group written: not given here.

Test [1] has as its target T1, enriched paired helical filament tau protein (ePHF) (human, phosphorylated residues of pathological tau, sites not stated). Briefly: direct ELISA. The method, then:
Variable domain nucleic acid sequences from antibodies obtained from immunizations described above were used to prepare recombinant mouse IgG antibodies. These candidate antibodies were analyzed for binding to ePHF and specificity for ePHF over wild type tau by direct ELISA.
For direct ePHF and wildtype tau ELISA, plates were first coated with ePHF or wild type tau. Antigen solutions were prepared in PBS and 50 μL were pipetted into each well. Plates were covered and incubated for one hour at 37° C. or overnight at 4° C. Plates were then washed and blocked by addition of 150 μl of blocking buffer to each well and incubated one hour at room temperature. Plates were then washed before addition of serially diluted candidate antibody samples prepared in blocking buffer. Detection of candidate antibody binding was carried out by washing plates and adding a solution of enzyme-labeled secondary antibody in blocking buffer to each well. Secondary antibody binding was detected by addition of substrate and spectrophotometric analysis of resulting reaction product.
A general note: ELISA stands for enzyme-linked immunosorbent assay.

In test [2] the target is T1, enriched paired helical filament tau …. Briefly: follow up analysis, method not stated.
In a further test the target is iPHF (Homo sapiens (Human), UniProt P10636-8). Put plainly: Octet, antibody on biosensor tips. The method, then:
Anti-human tau antibodies were assessed for affinity for iPHF by Octet (ForteBio, Menlo Park, CA) analysis. Recombinant mouse IgG antibodies were prepared with clone-specific variable domain pairs selected from those presented in Table 3 and mouse IgG1 constant domains. Candidate antibodies were immobilized on biosensor tips (ForteBio) in kinetic buffer (ForteBio). Biosensor tips were then washed before introduction of a solution of iPHF in kinetic buffer for analysis of association and dissociation with candidate antibodies. Affinity measurements (K_D) were obtained using Data Analysis HT version 11.1 and corrected for background and high-frequency noise.
In general terms: BLI is a label-free optical method that tracks binding on a fibre tip over time.

The target of test [3] is T2, peptides corresponding with residues 413-430 of human tau (human, also: biotin, position not given here, phosphorylated residues, sites not given here).
T2 peptide: STGSIDMVDSPQLATLAD
Briefly: Pepscan biotinylated peptides, BLI or colorimetric detection. The method, then:
(§1) Recombinant mouse IgG antibodies were prepared with clone-specific variable domain pairs selected from those presented in Table 3 and mouse IgG1 constant domains. Epitope analysis was carried out with different anti-tau antibodies using a peptide scanning approach (e.g., see Verelst, J. et al. Front Mol Biosci. 2020 Mar. 31; 7:48). Libraries of overlapping synthetic biotinylated peptides corresponding to phosphorylated human tau (Pepscan, Lelystad, NL) were obtained and used to coat assay plate wells, each with individual library members. Recombinant mouse IgG antibodies were prepared with clone-specific variable domain pairs selected from those presented in Table 3 and mouse IgG1 constant domains. Antibody binding to peptides in each well was analyzed using colorimetric detection of peptide-antibody complexes with labeled secondary antibody or by associating biotinylated peptides with streptavidin coated biosensors in assay wells and assessing antibody binding by bio-layer interferometry (BLI)-based detection.

The target in test [4] is T3, residues 57-72 of human tau (human, also: biotin, site not given here, phosphorylated residues, sites not given here).
T3 peptide: EEPGSETSDAKSTPTA
The description is as above. The method, then:
as §1

In test [5] the target is T4, residues 175-191 of human tau (human, also: biotin, site not given here, phosphorylated residues, sites not given here).
T4 peptide: TPPAPKTPPSSGEPPKS
The description is as above. The method, then: as §1

Test [6] concerns the target T5, residues 223-238 of human tau (human, also: biotin, site not given here, phosphorylated residues, sites not given here).
T5 peptide: PKKVAVVRTPPKSPSS
The description is as above. The method, then: as §1

Test [7] deals with T6, residues 383-400 of human tau (human, also: biotin, site not given here, phosphorylated residues, sites not given here).
T6 peptide: KAKTDHGAEIVYKSPVVS
The description is as above. The method, then:
as §1

B1: V0023 (antibody, V domains shown)
VH: QVQLQQPGTELVKPGASVKLSCKASGYTFTIFWMHWVKQRPGHGLEWIGKINPNNGGGDYNEKFKSKATLTVDKSSTTAYLQLSSLTSEDSAVYYCARGTGTGAMDYWGQGTSVTVSS
VL: DVVMTQTPLSLPVSLGDHASISCRSSQSLVHSNGITHLYWYLQRPGQTPKLLIYRVSNRFSGVPDRFSGSGSGTDFTLKISSVEAEDLGVYFCFQGTHVPRTFGGGTKLEIE
One may read the EC50 as the concentration that produces a half-maximal response. Low values mean greater potency, high ones weaker potency. By Kd is commonly meant the constant that tells how readily two partners part at equilibrium. Consider B1, for which it took 0.11 nM to reach a half-maximal effect in test [1] (EC50). In addition, the “selectivity for ePHF over wild type tau” value in test [2] is > 100 fold. In addition, the Kd in the test with iPHF was 4 nM; in test [3], 0.207 nM.

B2: V0052 (antibody, V domains shown)
VH: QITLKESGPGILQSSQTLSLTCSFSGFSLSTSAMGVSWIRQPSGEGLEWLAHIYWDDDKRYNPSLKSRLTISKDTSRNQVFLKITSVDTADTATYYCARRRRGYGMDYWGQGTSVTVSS
VL: SIVMTQTPKFLLVSAGDRVTITCKASQSVSNDVAWYQQKPGQSPKLLIYYASNRCTGVPDRFTGSGYGTDFTFTISTVQAEDLAVYFCQQDYRSPLTFGAGTKLELK
As to B2, the “selectivity for ePHF over wild type tau” value in test [2] was > 100 fold. In addition, the Kd in the test with iPHF stood at 0.6 nM; in test [4] it was 14 nM; in test [5], 7.24 nM; in test [6], 2.08 nM; in test [7], 12.6 nM.

The values above are taken from US12709641B2, “Tau binding compounds” (VOYAGER THERAPEUTICS, INC., dated 2026).
